From the supplement of paper PMC11246515
± gives the standard deviation of the averaged measurements.

Test: total protein half-life in vivo (active degradation + dilution); higher = more stable protein
[1] = E. coli NCM3722 delta-clpP delta-lon delta-hslV, growth: N-lim chemostat, doubling time 6 h
[2] = E. coli NCM3722 delta-clpP, growth: N-lim chemostat, doubling time 6 h
[3] = E. coli NCM3722 delta-hslV, growth: N-lim chemostat, doubling time 6 h
[4] = E. coli NCM3722 delta-lon, growth: N-lim chemostat, doubling time 6 h
[5] = E. coli NCM3722 delta-smpB, growth: N-lim chemostat, doubling time 6 h
[6] = wild type E. coli NCM3722, growth: C-lim chemostat, doubling time 3 h
[7] = wild type E. coli NCM3722, growth: C-lim chemostat, doubling time 6 h
[8] = wild type E. coli NCM3722, growth: C-lim chemostat, doubling time 12 h
[9] = wild type E. coli NCM3722, growth: N-lim chemostat, doubling time 6 h
[10] = wild type E. coli NCM3722, growth: N-lim chemostat, doubling time 12 h
[11] = wild type E. coli NCM3722, growth: P-lim chemostat, doubling time 6 h
[12] = wild type E. coli NCM3722, growth: P-lim chemostat, doubling time 12 h

MSEKTFLVEIGTEELPPKALRSLAESFAANFTAELDNAGLAHGTVQWFAAPRRLALKVANLAEAQPDREIEKRGPAIAQAFDAEGKPSKAAEGWARGCGITVDQAERLTTDKGEWLLYRAHVKGESTEALLPNMVATSLAKLPIPKLMRWGASDVHFVRPVHTVTLLLGDKVIPATILGIQSDRVIRGHRFMGEPEFTIDNADQYPEILRERGKVIADYEERKAKIKADAEEAARKIGGNADLSESLLEEVASLVEWPVVLTAKFEEKFLAVPAEALVYTMKGDQKYFPVYANDGKLLPNFIFVANIESKDPQQIISGNEKVVRPRLADAEFFFNTDRKKRLEDNLPRLQTVLFQQQLGTLRDKTDRIQALAGWIAEQIGADVNHATRAGLLSKCDLMTNMVFEFTDTQGVMGMHYARHDGEAEDVAVALNEQYQPRFAGDDLPSNPVACALAIADKMDTLAGIFGIGQHPKGDKDPFALRRAALGVLRIIVEKNLNLDLQTLTEEAVRLYGDKLTNANVVDDVIDFMLGRFRAWYQDEGYTVDTIQAVLARRPTRPADFDARMKAVSHFRTLDAAAALAAANKRVSNILAKSDEVLSDRVNASTLKEPEEIKLAMQVVVLRDKLEPYFTEGRYQDALVELAELREPVDAFFDKVMVMVDDKELRINRLTMLEKLRELFLRVADISLLQ
total protein half-life in vivo [1]: 6.02 ± 0.36 h
total protein half-life in vivo [2]: 6.28 ± 0.94 h
total protein half-life in vivo [3]: 5.56 ± 0.53 h
total protein half-life in vivo [4]: 5.82 ± 0.65 h
total protein half-life in vivo [5]: 5.74 ± 0.6 h
total protein half-life in vivo [6]: 3.278 ± 0.0052 h
total protein half-life in vivo [7]: 5.89 ± 0.085 h
total protein half-life in vivo [8]: 11 ± 1 h
total protein half-life in vivo [9]: 5.72 ± 0.31 h
total protein half-life in vivo [10]: 10.5 ± 0.11 h
total protein half-life in vivo [11]: 6.31 ± 0.44 h
total protein half-life in vivo [12]: 12.2 ± 1.2 h

MKKLRIGVVGLGGIAQKAWLPVLAAASDWTLQGAWSPTRAKALPICESWRIPYADSLSSLAASCDAVFVHSSTASHFDVVSTLLNAGVHVCVDKPLAENLRDAERLVELAARKKLTLMVGFNRRFAPLYGELKTQLATAASLRMDKHRSNSVGPHDLYFTLLDDYLHVVDTALWLSGGKASLDGGTLLTNDAGEMLFAEHHFSAGPLQITTCMHRRAGSQRETVQAVTDGALIDITDMREWREERGQGVVHKPIPGWQSTLEQRGFVGCARHFIECVQNQTVPQTAGEQAVLAQRIVDKIWRDAMSE
total protein half-life in vivo [1]: 5.47 ± 0.24 h
total protein half-life in vivo [2]: 5.38 ± 1.1 h
total protein half-life in vivo [3]: 5.7 ± 0.25 h
total protein half-life in vivo [4]: 6.04 ± 0.96 h
total protein half-life in vivo [5]: 4.86 ± 0.11 h
total protein half-life in vivo [6]: 3.12 ± 0.51 h
total protein half-life in vivo [7]: 5.88 ± 0.12 h
total protein half-life in vivo [8]: 11 ± 0.34 h
total protein half-life in vivo [9]: 4.96 ± 0.26 h
total protein half-life in vivo [10]: 9.402 ± 0.04 h
total protein half-life in vivo [11]: 6.2 ± 0.17 h
total protein half-life in vivo [12]: 12 ± 0.19 h

MRLNPGQQQAVEFVTGPCLVLAGAGSGKTRVITNKIAHLIRGCGYQARHIAAVTFTNKAAREMKERVGQTLGRKEARGLMISTFHTLGLDIIKREYAALGMKANFSLFDDTDQLALLKELTEGLIEDDKVLLQQLISTISNWKNDLKTPSQAAASAIGERDRIFAHCYGLYDAHLKACNVLDFDDLILLPTLLLQRNEEVRKRWQNKIRYLLVDEYQDTNTSQYELVKLLVGSRARFTVVGDDDQSIYSWRGARPQNLVLLSQDFPALKVIKLEQNYRSSGRILKAANILIANNPHVFEKRLFSELGYGAELKVLSANNEEHEAERVTGELIAHHFVNKTQYKDYAILYRGNHQSRVFEKFLMQNRIPYKISGGTSFFSRPEIKDLLAYLRVLTNPDDDSAFLRIVNTPKREIGPATLKKLGEWAMTRNKSMFTASFDMGLSQTLSGRGYEALTRFTHWLAEIQRLAEREPIAAVRDLIHGMDYESWLYETSPSPKAAEMRMKNVNQLFSWMTEMLEGSELDEPMTLTQVVTRFTLRDMMERGESEEELDQVQLMTLHASKGLEFPYVYMVGMEEGFLPHQSSIDEDNIDEERRLAYVGITRAQKELTFTLCKERRQYGELVRPEPSRFLLELPQDDLIWEQERKVVSAEERMQKGQSHLANLKAMMAAKRGK
total protein half-life in vivo [1]: 4.75 ± 0.66 h
total protein half-life in vivo [2]: 3.564 ± 0.03 h
total protein half-life in vivo [3]: 3.26 ± 0.39 h
total protein half-life in vivo [4]: 3.59 ± 0.24 h
total protein half-life in vivo [5]: 2.97 ± 0.12 h
total protein half-life in vivo [6]: 2.89 ± 0.43 h
total protein half-life in vivo [7]: 4.89 ± 0.71 h
total protein half-life in vivo [8]: 6.36 ± 0.89 h
total protein half-life in vivo [9]: 3.27 ± 0.52 h
total protein half-life in vivo [10]: 4.74 ± 0.2 h
total protein half-life in vivo [11]: 5.75 ± 0.71 h
total protein half-life in vivo [12]: 8.39 ± 0.72 h

MAYKHIGVAISGNEEDALLVNKALELARHNDAHLTLIHIDDGLSELYPGIYFPATEDILQLLKNKSDNKLYKLTKNIQWPKTKLRIERGEMPETLLEIMQKEQCDLLVCGHHHSFINRLMPAYRGMINKMSADLLIVPFIDK [P0AAB8]
total protein half-life in vivo [1]: 4.18 ± 0.41 h
total protein half-life in vivo [2]: 3.79 ± 0.29 h
total protein half-life in vivo [3]: 3.73 h
total protein half-life in vivo [4]: 4.56 ± 0.14 h
total protein half-life in vivo [5]: 2.7 ± 0.18 h
total protein half-life in vivo [6]: 2.99 h
total protein half-life in vivo [7]: 5.49 h
total protein half-life in vivo [8]: 9.51 ± 0.66 h
total protein half-life in vivo [9]: 3.69 h
total protein half-life in vivo [10]: 5.52 ± 0.12 h
total protein half-life in vivo [11]: 4.66 ± 0.43 h
total protein half-life in vivo [12]: 10.7 ± 0.12 h

MHPRFQTAFAQLADNLQSALEPILADKYFPALLTGEQVSSLKSATGLDEDALAFALLPLAAACARTPLSNFNVGAIARGVSGTWYFGANMEFIGATMQQTVHAEQSAISHAWLSGEKALAAITVNYTPCGHCRQFMNELNSGLDLRIHLPGREAHALRDYLPDAFGPKDLEIKTLLMDEQDHGYALTGDALSQAAIAAANRSHMPYSKSPSGVALECKDGRIFSGSYAENAAFNPTLPPLQGALILLNLKGYDYPDIQRAVLAEKADAPLIQWDATSATLKALGCHSIDRVLLA [P0ABF6]
total protein half-life in vivo [1]: 5.28 ± 0.35 h
total protein half-life in vivo [2]: 5.6 ± 0.071 h
total protein half-life in vivo [3]: 6 ± 1.1 h
total protein half-life in vivo [4]: 6.28 ± 0.78 h
total protein half-life in vivo [5]: 4.89 ± 0.18 h
total protein half-life in vivo [7]: 6.09 ± 0.4 h
total protein half-life in vivo [8]: 10.7 ± 0.78 h
total protein half-life in vivo [9]: 5.04 ± 0.077 h
total protein half-life in vivo [10]: 8.624 ± 0.078 h
total protein half-life in vivo [11]: 5.88 ± 0.059 h
total protein half-life in vivo [12]: 11.7 ± 0.35 h
